Measured values reported in IntAct's records for PubMed 18029035.

B1: Coiled-coil domain-containing protein 50 (Homo sapiens), Q8IVM0 (parent)
chain: MAEVSIDQSKLPGVKEVCRDFAVLEDHTLAHSLQEQEIEHHLASNVQRNRLVQHDLQVAKQLQEEDLKAQAQLQKRYKDLEQQDCEIAQEIQEKLAIEAERRRIQEKKDEDIARLLQEKELQEEKKRKKHFPEFPATRAYADSYYYEDGGMKPRVMKEAVSTPSRMAHRDQEWYDAEIARKLQEEELLATQVDMRAAQVAQDEEIARLLMAEEKKAYKKAKEREKSSLDKRKQDPEWKPKTAKAANSKSKESDEPHHSKNERPARPPPPIMTDGEDADYTHFTNQQSSTRHFSKSESSHKGFHYKH

Variants of: B1
Details: with ubb_human UBB

Row | Variant | effect of a mutation on the interaction
1 | L116P | decreasing interaction
